What was measured:
[1] = target: transmembrane TNFα on Jurkat/tmTNFα cells; assay: cell-based or functional assay
[2] = target: T1, mouse IL-17A (mouse, UniProt Q62386 26-158); assay: ELISA, plate-coated antigen 1 µg/mL, anti-human IgG-HRP
T1 construct: also called recombinant mouse IL-17A
T1 sequence (looked up): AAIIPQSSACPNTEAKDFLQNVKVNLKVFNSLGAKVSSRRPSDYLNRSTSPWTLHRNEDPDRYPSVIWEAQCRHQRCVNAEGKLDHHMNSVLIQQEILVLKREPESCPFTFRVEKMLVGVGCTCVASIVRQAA
Protocol: (§1) Detailed procedures are as follows: the recombinant mouse TNFα, rat TNFα, mouse IL-17A and rat IL-17A (all purchased from Sino Biological, P. R. China) were coated on wells of a 96-well high-adsorption ELISA plate using a carbonate buffer solution of pH 9.6 at a coating concentration of 1 μg/mL and in a coating amount of 100 μL per well. The coating was performed at 4° C. overnight. The wells were washed with PBST 5 times. The wells were blocked with 300 μL per well of PBST containing 1% BSA, and incubated for 1 hour at 25° C., and washed with PBST 5 times. […] The wells were washed with PBST 5 times. Then, horseradish peroxidase-labeled anti-human IgG antibody (Chemicon, cat #AP 309P) 1:10000 diluted in PBST containing 1% BSA was added in an amount of 100 μL per well, and incubated at 25° C. for 1 hour. The wells were washed with PBST 5 times. The chromogenic substrate TMB was added in an amount of 100 μL per well, and color developed at room temperature for 10 minutes. Color development was terminated by adding 1M H₂SO₄ in an amount of 100 μL per well. The absorbance at 450 nm was read on a microplate reader.

[3] = target: T2, rat IL-17A (rat, UniProt Q61453 18-150, limits assumed); assay: as above
T2 construct: also called recombinant rat IL-17A
T2 sequence (looked up): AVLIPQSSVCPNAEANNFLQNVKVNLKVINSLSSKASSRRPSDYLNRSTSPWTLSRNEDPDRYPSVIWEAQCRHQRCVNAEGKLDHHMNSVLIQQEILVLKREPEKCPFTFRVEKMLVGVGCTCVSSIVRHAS
Protocol: as §1

Enbrel® (Fc fusion)
Apoptosis ratio (%) of Jurkat/tmTNFα cells, Enbrel 1 µg/mL [1]: 19% | Apoptosis ratio (%) of Jurkat/tmTNFα cells, Enbrel 10 µg/mL [1]: 21%

Humira® (antibody)
Apoptosis ratio (%) of Jurkat/tmTNFα cells, Humira 1 µg/mL [1]: 29.9% | Apoptosis ratio (%) of Jurkat/tmTNFα cells, Humira 10 µg/mL [1]: 28.2%

B1: anti-mouse IL-17A monoclonal antibody (1D10 variable regions) (antibody, V domains shown)
VH: QVQLKESGPGLVQPSQTLSLTCTVSGFSLTNYYVHWVRQPPGKGLEWMGGVWNDGDTSYNSVLRSRLSITRDTSKSQVLLKMSSLQTEDTATYYCAREGREGFVGYYVMDAWGPGASVTVSS
VL: DIQMTQSPSFLSASVGERVTLSCKASQNINKYLDWFQQKLGEAPKLLIYNADNLHTGIPSRFSGSGSFSDFILTISSLQPEDDATYFCLQRESWPYTFGAGTKLELK
notes: Parental control of BH1654; variable regions from U.S. Pat. No. 7,846,443, 1D10; also called The anti-mouse IL-17A monoclonal antibody; anti-mouse IL-17A mAb
EC50 [2]: 27 pM | EC50 [3]: 32 pM

Reference: patent publication US20220010006A1 (BEIJING HANMI PHARMACEUTICAL, published 2022)
